Sequences and labels used below:
B3: Lot5 (residues 1-227) with N-terminal His6-TEV tag (domain or fragment, S. cerevisiae, UniProt P34234 1-227, looked up)
chain: MMKKKPKCQIARTKPSVENVIPYNQFKKTQPRFNGNFSALNNEEYIILFGGGRDLILGSLTPCSSSHLSNQANPQDTSEYGTDLFILNSCIIIWFNGLGYGLEIPYSSVLYHASRRLPDGREGLQLEILLTLERDEVLDMLYQSLAPQACEFDGEEAHAFTVRSVELTIRPKYSIYDRHYNNEIETLFTFENFGVNRGDDLVNNCNEALAVCMDLHGEDVQDQDQEQ
B5: full-length Brr1, HT-tag removed (natural protein, S. cerevisiae, UniProt Q99177 1-341, looked up)
chain: MKRGESQAPDAIFGQSRAFALSDSSVNPDVIEYLKSVRQEALRTNAISIKNHMNLQKRTRHKSSMYDDEDEGALKRHAISPSLIRLQRNVEIWVRWFNSVKATVLTNAYEFTGYEDETLDLLLLFLKNYLEDMPSKCTTVEKIISVLNQHSFPEKAEEKEENLQIDEEWAKNILVRLEKTKIDSVEDVKKVITEGDKHELVGYNQWFQYLINNEPQHTTFHEKITSKQLWVLIKYMSNTWIKEIHKKGRHYRRLQDWLFYILVHTPERVTAEYTSILRDLGKKCLELIQKKPVEAHENKITLPKEMAELNVEIPAAVENMTITELTVSVIAVNYGQKDLIE
B6: full-length Brr1 with N-terminal His6-TEV tag (natural protein, S. cerevisiae, UniProt Q99177 1-341, looked up)
chain: MKRGESQAPDAIFGQSRAFALSDSSVNPDVIEYLKSVRQEALRTNAISIKNHMNLQKRTRHKSSMYDDEDEGALKRHAISPSLIRLQRNVEIWVRWFNSVKATVLTNAYEFTGYEDETLDLLLLFLKNYLEDMPSKCTTVEKIISVLNQHSFPEKAEEKEENLQIDEEWAKNILVRLEKTKIDSVEDVKKVITEGDKHELVGYNQWFQYLINNEPQHTTFHEKITSKQLWVLIKYMSNTWIKEIHKKGRHYRRLQDWLFYILVHTPERVTAEYTSILRDLGKKCLELIQKKPVEAHENKITLPKEMAELNVEIPAAVENMTITELTVSVIAVNYGQKDLIE

Assay [1] deals with B6. Briefly: pull-down.
Assay [2] deals with T1, Brr1Δ(122-197) with N-terminal His6-TEV tag (S. cerevisiae, UniProt Q99177 1-341, Δ(122-197)).
T1 sequence (looked up): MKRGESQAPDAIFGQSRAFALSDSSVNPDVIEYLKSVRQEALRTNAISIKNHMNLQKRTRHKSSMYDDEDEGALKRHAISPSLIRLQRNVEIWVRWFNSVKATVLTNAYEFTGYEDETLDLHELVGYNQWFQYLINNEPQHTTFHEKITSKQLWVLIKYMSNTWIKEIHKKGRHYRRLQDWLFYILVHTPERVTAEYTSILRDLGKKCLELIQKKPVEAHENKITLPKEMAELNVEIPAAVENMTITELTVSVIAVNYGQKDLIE
Briefly: pull-down.

Assay [3] concerns the target B5. Briefly: SEC.
Assay [4] has as its target T2, full-length Lot5 with N-terminal His6-TEV tag (S. cerevisiae, UniProt P34234 1-306).
T2 sequence (looked up): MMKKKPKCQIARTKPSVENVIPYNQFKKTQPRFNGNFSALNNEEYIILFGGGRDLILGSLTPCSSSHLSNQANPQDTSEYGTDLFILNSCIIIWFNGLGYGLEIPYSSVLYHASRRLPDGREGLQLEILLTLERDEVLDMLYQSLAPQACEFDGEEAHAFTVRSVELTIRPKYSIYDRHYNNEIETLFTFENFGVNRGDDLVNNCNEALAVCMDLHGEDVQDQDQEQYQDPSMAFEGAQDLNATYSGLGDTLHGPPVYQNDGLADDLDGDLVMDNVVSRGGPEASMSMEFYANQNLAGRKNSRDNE
Briefly: pull-down.

Assay [5] concerns the target B3. Nature of the assay: pull-down.
The next assay deals with T3, Brr1/5Sm heterohexamer (S. cerevisiae, UniProt Q99177 1-341; Q02260 1-109; Q06217 1-110; P54999 1-86; Q12330 1-94; P40204 1-77).
T3 sequence (looked up) 1: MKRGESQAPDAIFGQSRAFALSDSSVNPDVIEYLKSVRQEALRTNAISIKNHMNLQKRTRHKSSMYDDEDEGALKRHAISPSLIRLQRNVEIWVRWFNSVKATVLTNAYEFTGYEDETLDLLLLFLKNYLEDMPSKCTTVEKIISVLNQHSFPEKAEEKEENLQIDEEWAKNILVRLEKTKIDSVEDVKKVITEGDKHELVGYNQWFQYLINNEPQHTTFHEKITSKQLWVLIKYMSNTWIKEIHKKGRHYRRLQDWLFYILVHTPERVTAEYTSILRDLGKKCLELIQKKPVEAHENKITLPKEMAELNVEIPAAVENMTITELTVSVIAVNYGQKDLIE
T3 sequence (looked up) 2: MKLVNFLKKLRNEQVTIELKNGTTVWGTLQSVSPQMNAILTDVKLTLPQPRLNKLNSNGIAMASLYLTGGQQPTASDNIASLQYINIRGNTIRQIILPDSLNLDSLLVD
T3 sequence (looked up) 3: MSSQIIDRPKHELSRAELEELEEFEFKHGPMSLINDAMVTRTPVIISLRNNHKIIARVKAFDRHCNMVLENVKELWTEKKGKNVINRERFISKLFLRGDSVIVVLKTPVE
T3 sequence (looked up) 4: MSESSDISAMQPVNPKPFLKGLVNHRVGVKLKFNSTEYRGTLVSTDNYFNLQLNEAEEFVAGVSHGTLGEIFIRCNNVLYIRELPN
T3 sequence (looked up) 5: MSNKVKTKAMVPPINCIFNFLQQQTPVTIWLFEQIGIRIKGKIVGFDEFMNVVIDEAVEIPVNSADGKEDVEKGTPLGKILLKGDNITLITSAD
T3 sequence (looked up) 6: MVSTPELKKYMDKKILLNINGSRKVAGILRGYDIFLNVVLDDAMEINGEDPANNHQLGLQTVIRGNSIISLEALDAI
Briefly: SEC. On the technique in general: In gel filtration, larger molecules generally elute earlier.

The target in assay [6] is T4, D1/D2/F/E/G pentamer (5Sm) (S. cerevisiae, UniProt Q02260 1-109; Q06217 1-110; P54999 1-86; Q12330 1-94; P40204 1-77).
T4 sequence (looked up) 1: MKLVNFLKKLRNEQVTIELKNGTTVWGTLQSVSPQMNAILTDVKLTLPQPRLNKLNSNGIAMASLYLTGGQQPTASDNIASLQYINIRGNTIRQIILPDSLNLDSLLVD
T4 sequence (looked up) 2: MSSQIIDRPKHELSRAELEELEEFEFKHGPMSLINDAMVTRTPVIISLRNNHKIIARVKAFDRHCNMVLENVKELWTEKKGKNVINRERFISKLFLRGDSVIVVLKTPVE
T4 sequence (looked up) 3: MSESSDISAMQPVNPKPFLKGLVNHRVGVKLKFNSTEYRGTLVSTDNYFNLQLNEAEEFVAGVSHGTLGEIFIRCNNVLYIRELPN
T4 sequence (looked up) 4: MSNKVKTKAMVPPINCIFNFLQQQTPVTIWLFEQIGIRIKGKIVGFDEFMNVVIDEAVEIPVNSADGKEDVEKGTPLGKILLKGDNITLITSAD
T4 sequence (looked up) 5: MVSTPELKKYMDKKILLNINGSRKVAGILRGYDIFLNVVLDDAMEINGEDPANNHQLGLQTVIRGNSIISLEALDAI
Nature of the assay: SEC.

Assay [7] concerns the target T4, D1/D2/F/E/G pentamer (5Sm). Nature of the assay: pull-down.

B1: SmF/E/G subcomplex, HT-tag removed (complex, S. cerevisiae)
chain 1: MSESSDISAMQPVNPKPFLKGLVNHRVGVKLKFNSTEYRGTLVSTDNYFNLQLNEAEEFVAGVSHGTLGEIFIRCNNVLYIRELPN
chain 2: MSNKVKTKAMVPPINCIFNFLQQQTPVTIWLFEQIGIRIKGKIVGFDEFMNVVIDEAVEIPVNSADGKEDVEKGTPLGKILLKGDNITLITSAD
chain 3: MVSTPELKKYMDKKILLNINGSRKVAGILRGYDIFLNVVLDDAMEINGEDPANNHQLGLQTVIRGNSIISLEALDAI
In the case of B1, the binding result in assay [1], in assay [2] and in assay [3] was “binds” each time.

B2: SmD1/D2 subcomplex, HT-tag removed (complex, S. cerevisiae)
chain 1: MKLVNFLKKLRNEQVTIELKNGTTVWGTLQSVSPQMNAILTDVKLTLPQPRLNKLNSNGIAMASLYLTGGQQPTASDNIASLQYINIRGNTIRQIILPDSLNLDSLLVD
chain 2: MSSQIIDRPKHELSRAELEELEEFEFKHGPMSLINDAMVTRTPVIISLRNNHKIIARVKAFDRHCNMVLENVKELWTEKKGKNVINRERFISKLFLRGDSVIVVLKTPVE
As for B2, the binding result in assay [4] and in assay [5] was “binds” each time.

In the case of B3, the binding result (in the assay with Brr1/5Sm heterohexamer; in assay [6]) was “binds” in each case.

B4: SmD3/B subcomplex, HT-tag removed (complex, S. cerevisiae)
chain 1: MSKIQVAHSSRLANLIDYKLRVLTQDGRVYIGQLMAFDKHMNLVLNECIEERVPKTQLDKLRPRKDSKDGTTLNIKVEKRVLGLTILRGEQILSTVVEDKPLLSK
chain 2: MTMNGIPVKLLNEAQGHIVSLELTTGATYRGKLVESEDSMNVQLRDVIATEPQGAVTHMDQIFVRGSQIKFIVVPDLLKNAPLFKKNS
For B4, the binding result in assay [4] and in assay [5] was “binds” in each case.

With B5, the binding result in assay [6] is reported as “binds”.

Regarding B6, the binding result in assay [7] is recorded as “binds”.
